{
  "source": "the RNAGym collection of RNA variant scans (doi:10.7554/elife.80360)",
  "parents": {"B1": {"name": "CPEB3 Ribozyme (parent)", "chain": "GGGGGCCACAGCAGAAGCGUUCACGUCGCGGCCCCUGUCAGAUUCUGGUGAAUCUGCGAAUUCUGCUGU"}},
  "data": [
    {"variants_of": "B1", "test": "self-cleavage, relative activity (ratio to wild type); higher = more cleavage; co-transcriptional", "values": [
      {"variant": "G4C G17C", "self-cleavage": 0.0898},
      {"variant": "G4U C34A", "self-cleavage": 0.167},
      {"variant": "G4U C34G", "self-cleavage": 0.113},
      {"variant": "G4U C34U", "self-cleavage": 0.361},
      {"variant": "G4C U61G", "self-cleavage": 0.178},
      {"variant": "G4C U61C", "self-cleavage": 0.169},
      {"variant": "G4C U55C", "self-cleavage": 0.237},
      {"variant": "G4C U55A", "self-cleavage": 0.261},
      {"variant": "G4U G19A", "self-cleavage": 0.0808},
      {"variant": "G4U G19C", "self-cleavage": 0.0957},
      {"variant": "G4C U21G", "self-cleavage": 0.0719},
      {"variant": "G4C U21C", "self-cleavage": 0.215},
      {"variant": "G4C U21A", "self-cleavage": 0.427},
      {"variant": "G4U C18U", "self-cleavage": 0.257},
      {"variant": "G4U C18G", "self-cleavage": 0.0879},
      {"variant": "G4C G68U", "self-cleavage": 0.98},
      {"variant": "G4C G56A", "self-cleavage": 0.289},
      {"variant": "G4C G56C", "self-cleavage": 0.246},
      {"variant": "G4U C32U", "self-cleavage": 0.436},
      {"variant": "G4U C32G", "self-cleavage": 0.129},
      {"variant": "G4U C32A", "self-cleavage": 0.135},
      {"variant": "G4U C27A", "self-cleavage": 0.11},
      {"variant": "G4U C27U", "self-cleavage": 0.114},
      {"variant": "G4U C12G", "self-cleavage": 0.182},
      {"variant": "G4U C12U", "self-cleavage": 0.819},
      {"variant": "G4U C12A", "self-cleavage": 0.255},
      {"variant": "G4U C54G", "self-cleavage": 0.21},
      {"variant": "G4U C54U", "self-cleavage": 0.709},
      {"variant": "G4U C54A", "self-cleavage": 0.289},
      {"variant": "G4U C35U", "self-cleavage": 0.128},
      {"variant": "G4U C35A", "self-cleavage": 0.114},
      {"variant": "G4U C35G", "self-cleavage": 0.101},
      {"variant": "G4U C45G", "self-cleavage": 0.587},
      {"variant": "G4U C45A", "self-cleavage": 0.554},
      {"variant": "G4U C45U", "self-cleavage": 0.743},
      {"variant": "G4C G41A", "self-cleavage": 0.0714},
      {"variant": "G4C G41C", "self-cleavage": 0.146},
      {"variant": "G4U A60U", "self-cleavage": 0.219},
      {"variant": "G4U A60C", "self-cleavage": 0.171},
      {"variant": "G4U C6G", "self-cleavage": 0.0353},
      {"variant": "G4U C6A", "self-cleavage": 0.0552},
      {"variant": "G4C C66G", "self-cleavage": 0.229},
      {"variant": "G4C C66A", "self-cleavage": 0.396},
      {"variant": "G4C C66U", "self-cleavage": 0.678},
      {"variant": "G4U C24A", "self-cleavage": 0.122},
      {"variant": "G4U C24G", "self-cleavage": 0.0638},
      {"variant": "G4U C39A", "self-cleavage": 0.322},
      {"variant": "G4C C63A", "self-cleavage": 0.217},
      {"variant": "G4C C63U", "self-cleavage": 0.584},
      {"variant": "G4U G14C", "self-cleavage": 0.205},
      {"variant": "G4U G14U", "self-cleavage": 0.241},
      {"variant": "G4C G19A", "self-cleavage": 0.0646},
      {"variant": "G4C G65A", "self-cleavage": 0.412},
      {"variant": "G4C G65U", "self-cleavage": 0.294},
      {"variant": "G4C G65C", "self-cleavage": 0.242},
      {"variant": "G4C U67C", "self-cleavage": 0.824},
      {"variant": "G4C U67A", "self-cleavage": 0.902},
      {"variant": "G4C U67G", "self-cleavage": 0.848},
      {"variant": "G4C C22A", "self-cleavage": 0.0918},
      {"variant": "G4U A10U", "self-cleavage": 0.983},
      {"variant": "G4U A40G", "self-cleavage": 0.542},
      {"variant": "G4U A40U", "self-cleavage": 0.313},
      {"variant": "G4C U53A", "self-cleavage": 0.316},
      {"variant": "G4C U53C", "self-cleavage": 0.239},
      {"variant": "G4U C7U", "self-cleavage": 0.233},
      {"variant": "G4C C32U", "self-cleavage": 0.198},
      {"variant": "G4C U36A", "self-cleavage": 0.0958},
      {"variant": "G4C U36G", "self-cleavage": 0.481},
      {"variant": "G4C U36C", "self-cleavage": 0.589},
      {"variant": "G4C C18A", "self-cleavage": 0.0472},
      {"variant": "G4C C18U", "self-cleavage": 0.129},
      {"variant": "G4C C18G", "self-cleavage": 0.0437},
      {"variant": "G4C G25C", "self-cleavage": 0.102},
      {"variant": "G4C G25A", "self-cleavage": 0.0767},
      {"variant": "G4C G25U", "self-cleavage": 0.0499},
      {"variant": "G4C C34G", "self-cleavage": 0.0856},
      {"variant": "G4C G37U", "self-cleavage": 0.0878},
      {"variant": "G4C G37A", "self-cleavage": 0.124},
      {"variant": "G4C G37C", "self-cleavage": 0.068},
      {"variant": "G4C U64C", "self-cleavage": 0.426},
      {"variant": "G4C U64A", "self-cleavage": 0.457},
      {"variant": "G4C G31C", "self-cleavage": 0.105},
      {"variant": "G4U C29A", "self-cleavage": 0.0776},
      {"variant": "G4U C63G", "self-cleavage": 0.292},
      {"variant": "G4C G50C", "self-cleavage": 0.621},
      {"variant": "G4C G50A", "self-cleavage": 0.654},
      {"variant": "G4C U20C", "self-cleavage": 0.0911},
      {"variant": "G4C U20A", "self-cleavage": 0.0691},
      {"variant": "G4C U20G", "self-cleavage": 0.072},
      {"variant": "G4C G14C", "self-cleavage": 0.101},
      {"variant": "G4C G14A", "self-cleavage": 0.223},
      {"variant": "G4C G14U", "self-cleavage": 0.149},
      {"variant": "G4U A8U", "self-cleavage": 0.737},
      {"variant": "G4C U38A", "self-cleavage": 0.639},
      {"variant": "G4C U38G", "self-cleavage": 0.152},
      {"variant": "G4C C27U", "self-cleavage": 0.0743},
      {"variant": "G4U A59U", "self-cleavage": 0.193},
      {"variant": "G4U A59C", "self-cleavage": 0.146},
      {"variant": "G4C G11C", "self-cleavage": 0.273},
      {"variant": "G4C G11U", "self-cleavage": 0.262},
      {"variant": "G4C G11A", "self-cleavage": 0.375},
      {"variant": "G4U G17A", "self-cleavage": 0.114},
      {"variant": "G4U C22U", "self-cleavage": 0.0611},
      {"variant": "G4U C22A", "self-cleavage": 0.065},
      {"variant": "G4U C66U", "self-cleavage": 0.771},
      {"variant": "G4U C66A", "self-cleavage": 0.468},
      {"variant": "G4C U62C", "self-cleavage": 0.213},
      {"variant": "G4C U62G", "self-cleavage": 0.311},
      {"variant": "G4C C45U", "self-cleavage": 0.733},
      {"variant": "G4C C45G", "self-cleavage": 0.477},
      {"variant": "G4C C45A", "self-cleavage": 0.419},
      {"variant": "G4C G58A", "self-cleavage": 0.278},
      {"variant": "G4C G58U", "self-cleavage": 0.71},
      {"variant": "G4C G58C", "self-cleavage": 0.226},
      {"variant": "G4C G48U", "self-cleavage": 0.755},
      {"variant": "G4C G48C", "self-cleavage": 0.675},
      {"variant": "G4C U69G", "self-cleavage": 0.914},
      {"variant": "G4C U69A", "self-cleavage": 0.877},
      {"variant": "G4C U26A", "self-cleavage": 0.125},
      {"variant": "G4C U26G", "self-cleavage": 0.217},
      {"variant": "G4C C29G", "self-cleavage": 0.0753},
      {"variant": "G4C C29A", "self-cleavage": 0.0787},
      {"variant": "G4C G5C", "self-cleavage": 0.212},
      {"variant": "G4C G5U", "self-cleavage": 0.0341},
      {"variant": "G4U A42U", "self-cleavage": 0.526},
      {"variant": "G4U A42G", "self-cleavage": 0.655},
      {"variant": "G4U C57U", "self-cleavage": 0.211},
      {"variant": "G4U C57G", "self-cleavage": 0.165},
      {"variant": "G4C G47U", "self-cleavage": 0.638},
      {"variant": "G4C G47A", "self-cleavage": 0.674},
      {"variant": "G4U A52G", "self-cleavage": 0.722},
      {"variant": "G4U A52U", "self-cleavage": 0.677},
      {"variant": "G4U A52C", "self-cleavage": 0.519},
      {"variant": "G4U A23G", "self-cleavage": 0.502},
      {"variant": "G4U C9G", "self-cleavage": 0.974},
      {"variant": "G4U C9A", "self-cleavage": 0.982},
      {"variant": "G4U A16U", "self-cleavage": 0.235},
      {"variant": "G4C C54A", "self-cleavage": 0.225},
      {"variant": "G4C C54G", "self-cleavage": 0.175},
      {"variant": "G4C C54U", "self-cleavage": 0.562},
      {"variant": "G4U C33U", "self-cleavage": 0.975},
      {"variant": "G4U C33A", "self-cleavage": 1},
      {"variant": "G4C G30U", "self-cleavage": 0.0789},
      {"variant": "G4C G30A", "self-cleavage": 0.0414},
      {"variant": "G4C U44G", "self-cleavage": 0.265},
      {"variant": "G4U A15U", "self-cleavage": 0.272},
      {"variant": "G4C C35A", "self-cleavage": 0.0948},
      {"variant": "G4C C35G", "self-cleavage": 0.0833},
      {"variant": "G4U G11U", "self-cleavage": 0.492},
      {"variant": "G4U G11C", "self-cleavage": 0.228},
      {"variant": "G4U G11A", "self-cleavage": 0.571},
      {"variant": "G4C U43A", "self-cleavage": 0.251},
      {"variant": "G4C C39A", "self-cleavage": 0.223},
      {"variant": "G4C C39U", "self-cleavage": 0.261},
      {"variant": "G4C G28U", "self-cleavage": 0.109},
      {"variant": "G4C G28C", "self-cleavage": 0.0443},
      {"variant": "G4C G28A", "self-cleavage": 0.0907},
      {"variant": "G4C C57A", "self-cleavage": 0.136},
      {"variant": "G4U G5U", "self-cleavage": 0.0723},
      {"variant": "G4C C24A", "self-cleavage": 0.167},
      {"variant": "G4C C24G", "self-cleavage": 0.117},
      {"variant": "G4U A13U", "self-cleavage": 0.383},
      {"variant": "G4U A13C", "self-cleavage": 0.336},
      {"variant": "G4U A51U", "self-cleavage": 0.772},
      {"variant": "G4U A51G", "self-cleavage": 0.692},
      {"variant": "G4U A51C", "self-cleavage": 0.524},
      {"variant": "G4C U46C", "self-cleavage": 0.619}
    ]}
  ]
}
